We go through two molecules from patent US20240392000A1 (BIOGRAPH 55, published 2024).

The assay addresses CD38 antigen (in solution, Octet analyte) (human, UniProt P28907 43-300, limits assumed). Nature of the assay: BLI (Octet Red), antibody captured on AHC sensor, antigen in solution, 1:1 model.

Experimental: Binding experiments were performed on Octet Red at 25° C. The antibodies were loaded onto anti-hIgG Fc Capture (AHC) biosensors for 300 seconds. The ligand-loaded sensors were dipped into a two-fold series dilution (starting at 300 nM) of the antigens (CD19 and CD38) for 240 seconds of CD19 and 150 seconds of CD38 for association followed by dissociation for 600 seconds of CD19 and 130 seconds of CD38. Kinetic constants were calculated using a monovalent (1:1) binding model.

B1: BS1M-4 (BS1 anti-CD38 arm CDR-H2 variant RVIPHLGTAN) (bispecific antibody, human IgG1, kappa)
heavy: not shown
VH: QVQLVQSGAEVKKPGSSVKVSCKASGGTFSSYAFSWVRQAPGQGLEWMGRVIPHLGTANSAQKFQGRVTITADKSTSTAYMELSSLRSEDTAVYYCARDDIAALGPFDYWGQGTLVTVSS
light: not shown
notes: BS1 format
By Kd is commonly meant the equilibrium constant for the complex coming apart. A lower Kd goes with higher affinity. Consider B1, for which the dissociation constant (Kd) amounted to 94.4 nM.

B2: BS1M-7 (BS1 anti-CD38 arm CDR-H2 variant RVIPQLGTAN) (bispecific antibody, human IgG1, kappa)
heavy: not shown
VH: QVQLVQSGAEVKKPGSSVKVSCKASGGTFSSYAFSWVRQAPGQGLEWMGRVIPQLGTANSAQKFQGRVTITADKSTSTAYMELSSLRSEDTAVYYCARDDIAALGPFDYWGQGTLVTVSS
light: not shown
notes: BS1 format
For B2, binding was put at a Kd of 60.5 nM.
